Test results as given in patent US9820934B2, “Acid containing lipid formulations” (CAMURUS AB, priority 2007, dated 2017).

Experiment: Dissolution of GLP-1 in lipid formulation containing P80 and MeSulf (visual: homogenous, transparent)
Format: physicochemical
Details: SPC/GDO/P80/EtOH/PG/MeSulf=41.0/41.0/5.0/3.0/10.0/0.5 wt %; nominal loads 3, 4, 5 and 6 wt % GLP-1(0); room temperature, 1-3 days
From the text: The lipid composition was the following: SPC/GDO/P80/EtOH/PG/MeSulf=41.0/41.0/5.0/3.0/10.0/0.5 wt %.

GLP-1(7-36)amide, acetate salt [GLP-1(Ac)]
Dissolution of GLP-1 in the lipid formulation: complete dissolution
